Patent publication US8962697B2, “Bioreponsive polymers” (Interface Biologics Inc., priority 2006, dated 2015)

Assays:
MMP-9 = molecular target: T1, MMP-9 (Homo sapiens, UniProt P14780); experiment: MMP-9 bioresponsive degradation assay; format: biochemical; conditions: 100 nM MMP-9, 1 mM substrate, room temperature, 3 hr
T1 construct: purchased Chemicon, Temecula, Calif
Protocol: The hydrolysis of the substrates were done in MMPs activation buffer. […] 100 nM MPP-9 was added in this activating buffer and incubated at 37° C. for 4 hr. to activate enzyme. After activating, the 1 mM substrates were added to be hydrolysis at room temperature for 3 hr.

V8 proteinase = V8 proteinase (Staphylococcus aureus, UniProt P0C1U8); conditions: 100 nM V8 proteinase, 1 mM substrate, 37° C., 3 hr
Chain of V8 proteinase (P0C1U8 69-336): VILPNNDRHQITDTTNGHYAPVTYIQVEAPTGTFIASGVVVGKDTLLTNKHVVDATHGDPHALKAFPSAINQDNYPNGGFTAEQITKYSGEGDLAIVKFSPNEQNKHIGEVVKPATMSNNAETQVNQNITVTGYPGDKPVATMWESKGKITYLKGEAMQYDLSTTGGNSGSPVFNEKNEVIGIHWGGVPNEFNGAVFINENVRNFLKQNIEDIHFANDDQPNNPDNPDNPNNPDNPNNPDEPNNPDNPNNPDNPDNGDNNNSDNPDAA
Protocol: The hydrolysis of the substrate was performed in V8 proteinase activation buffer. The buffer contains 100 mM Tris-HCL, 1 mM CaCl2, pH 7.8, and 10 mM o-phenanthroline. 100 nM V8 proteinase and 1 mM substrate were added in the buffer, and then incubated at 37° C. for 3 hr.
(§1) All control degradation profiles was conducted as outlined in EXAMPLE 22 through EXAMPLE 26 utilizing the control peptides […] and PRRICV, identified as LAR-7047 and LAR-7048 respectively, as substrates.

aureolysin = aureolysin (Staphylococcus aureus, UniProt P81177); conditions: 100 nM aureolysin, 1 mM substrate, 37° C., 3 hr
Chain of aureolysin (P81177 209-509): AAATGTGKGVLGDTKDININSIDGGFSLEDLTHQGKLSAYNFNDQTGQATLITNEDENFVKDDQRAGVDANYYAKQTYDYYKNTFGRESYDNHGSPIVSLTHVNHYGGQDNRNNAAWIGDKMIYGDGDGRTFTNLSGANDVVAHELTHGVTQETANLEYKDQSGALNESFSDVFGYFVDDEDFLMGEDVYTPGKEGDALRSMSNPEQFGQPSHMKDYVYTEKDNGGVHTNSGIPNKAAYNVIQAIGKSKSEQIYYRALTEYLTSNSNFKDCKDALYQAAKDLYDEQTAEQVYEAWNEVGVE
Protocol: The hydrolysis of the substrate was performed in aureolysin activation buffer. The buffer contains 100 mM Tris-HCL, 1 mM CaCL2, pH 7.8, and 1 mM 3,4-dichloroisoumarine. 100 nM aureolysin and 1 mM substrate were added in the buffer, and then incubated at 37° C. for 3 hr.
as §1

T1 sequence (P14780 107-707 limits assumed): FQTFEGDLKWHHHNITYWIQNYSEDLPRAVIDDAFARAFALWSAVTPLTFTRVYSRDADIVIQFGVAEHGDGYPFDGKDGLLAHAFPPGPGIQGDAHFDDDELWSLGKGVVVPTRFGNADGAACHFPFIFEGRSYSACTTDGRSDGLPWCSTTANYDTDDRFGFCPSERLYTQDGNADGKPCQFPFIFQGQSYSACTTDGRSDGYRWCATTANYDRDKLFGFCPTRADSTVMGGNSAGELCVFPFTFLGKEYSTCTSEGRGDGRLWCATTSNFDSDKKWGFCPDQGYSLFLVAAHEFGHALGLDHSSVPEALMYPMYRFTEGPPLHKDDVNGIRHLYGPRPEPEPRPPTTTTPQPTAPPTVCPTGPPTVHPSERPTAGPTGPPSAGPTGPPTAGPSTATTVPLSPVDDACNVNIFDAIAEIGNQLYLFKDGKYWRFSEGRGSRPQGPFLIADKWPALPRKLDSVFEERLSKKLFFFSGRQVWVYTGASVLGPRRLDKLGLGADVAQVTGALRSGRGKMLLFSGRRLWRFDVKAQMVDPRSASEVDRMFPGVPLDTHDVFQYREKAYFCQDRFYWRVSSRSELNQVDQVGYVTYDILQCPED

For “Pro-arg-arg-arg-arg-pro-arg-gln-ile-thr-ala (PRRRRPRQITA) [LAR-7009, peptide targeted to MMP-9 (inflammation)]”, which “Degradation of peptide substrate by MMP-9 (fragment observed)” value (MMP-9) is on record?
The value was “produced specific fragment pick: 1121.66 corresponding to PRRRRPRQ sequence”.

With “Pro-arg-arg-ile-sys-val (PRRICV) [LAR-7048]” as the substance, how does the “Degradation of peptide substrate by V8 proteinase” value (V8 proteinase) read?
Its value is “No degradation”.

What about the “Degradation of peptide substrate by aureolysin” value (aureolysin) of the same substance?
Its value is “No degradation”.

And the “Degradation of peptide substrate by MMP-9 (fragment observed)” value (MMP-9)?
The value was “No degradation”.

What does the source list for “val-phe-phe-arg-arg-gln-thr-ala (VFFRRQTA) [LAR-7047]”?
Degradation of peptide substrate by V8 proteinase (V8 proteinase): No degradation; Degradation of peptide substrate by aureolysin (aureolysin): No degradation; Degradation of peptide substrate by MMP-9 (fragment observed) (MMP-9): No degradation
